From the supplement of paper PMC10126150
± gives the standard deviation of the averaged measurements.

System: ATP
Assay: switch fluorescence ratio, 500 uM ATP over buffer (Cy3 cluster intensity, sum of 5 cycles each) (fold (ratio)); higher = stronger signal-on switching upon ATP binding; sequences stand for … in TCGTCGGCAGCGTCAGATGTGTATAAGAGACAGTTTTTTTTTTTTTTTTTTTTTTTTT…TC
Conditions: aptamer strand: ATP DNA aptamer (quencher-CACCTGGGGGAGTATTGCGGAGGAAGG + anchor), 100 nM annealed; ATP concentration: 500 uM
In short: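 Clusters carrying Cy3-labelled switching strands on a modified Illumina MiSeq flow-cell were annealed to 100 nM quencher-labelled ATP aptamer and imaged in selection buffer. They were imaged again after 15 min with 500 uM ATP at 22 °C, over five buffer/ATP cycles with NaOH stripping and re-annealing in between. For each cluster, the fluorescence ratio is the summed Cy3 intensity of the target cycles divided by that of the buffer cycles, averaged per switch-domain sequence. Clusters outside 100-1000 RFU were left out.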
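Note: ATP exposure 15 min at 22 °C before imaging.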

TAGGTGTGTA
switch fluorescence ratio: 0.984 ± 0.031

TAGGTGTTGC
switch fluorescence ratio: 1 ± 0.023

TAGGTTCCGG
switch fluorescence ratio: 0.993 ± 0.034

TAGGTTCCTT
switch fluorescence ratio: 0.986 ± 0.035

TAGGTTGGGG
switch fluorescence ratio: 1.005 ± 0.0065

TAGGTTGTCT
switch fluorescence ratio: 1.03 ± 0.036

TAGGTTTAAT
switch fluorescence ratio: 0.992 ± 0.036

TAGGTTTAGG
switch fluorescence ratio: 0.987 ± 0.013

TAGGTTTGGC
switch fluorescence ratio: 1.03 ± 0.024

TAGGTTTTCG
switch fluorescence ratio: 0.98974 ± 0.00052

TAGGTTTTTG
switch fluorescence ratio: 1.01 ± 0.058

TAGTAACGGT
switch fluorescence ratio: 0.996 ± 0.053

TAGTAAGGGG
switch fluorescence ratio: 0.969 ± 0.051

TAGTAAGTTT
switch fluorescence ratio: 0.998 ± 0.012

TAGTAGAGTT
switch fluorescence ratio: 1 ± 0.013

TAGTAGCCTT
switch fluorescence ratio: 1.03 ± 0.022

TAGTAGGGCA
switch fluorescence ratio: 1.01 ± 0.033

TAGTATGAGG
switch fluorescence ratio: 0.976 ± 0.021

TAGTATGGCG
switch fluorescence ratio: 1.04 ± 0.088

TAGTATGGGA
switch fluorescence ratio: 0.968 ± 0.013

TAGTATTTAT
switch fluorescence ratio: 1.02 ± 0.044

TAGTCAGAAT
switch fluorescence ratio: 0.967 ± 0.012

TAGTCAGAGG
switch fluorescence ratio: 1.01 ± 0.012

TAGTCCCCCC
switch fluorescence ratio: 1.21 ± 0.2

TAGTCGATGC
switch fluorescence ratio: 1.03 ± 0.034

TAGTCGCTCC
switch fluorescence ratio: 1.03 ± 0.034

TAGTGAACTT
switch fluorescence ratio: 1.01 ± 0.0054

TAGTGAAGGG
switch fluorescence ratio: 0.9974 ± 0.0061

TAGTGATGCG
switch fluorescence ratio: 0.967 ± 0.025

TAGTGCCTGT
switch fluorescence ratio: 0.995 ± 0.028

TAGTGCGGTA
switch fluorescence ratio: 1.036 ± 0.0022

TAGTGGAAAC
switch fluorescence ratio: 0.9885 ± 0.0015

TAGTGGGGGC
switch fluorescence ratio: 1.01 ± 0.044

TAGTGGGGTA
switch fluorescence ratio: 0.98 ± 0.032

TAGTGGGTCC
switch fluorescence ratio: 1.02 ± 0.037

TAGTGGGTTA
switch fluorescence ratio: 0.974 ± 0.023

TAGTGGGTTG
switch fluorescence ratio: 1 ± 0.021

TAGTGTATCG
switch fluorescence ratio: 0.993 ± 0.045

TAGTGTCTTT
switch fluorescence ratio: 0.993 ± 0.014

TAGTGTGTTG
switch fluorescence ratio: 0.996 ± 0.011

TAGTGTTGGG
switch fluorescence ratio: 0.9837 ± 0.0015

TAGTTAACTT
switch fluorescence ratio: 1.01 ± 0.021

TAGTTAATCG
switch fluorescence ratio: 0.968 ± 0.017

TAGTTACGAT
switch fluorescence ratio: 1.04 ± 0.012

TAGTTATGAG
switch fluorescence ratio: 1.12 ± 0.19

TAGTTATGGG
switch fluorescence ratio: 0.998 ± 0.044

TAGTTCGTTG
switch fluorescence ratio: 0.9799 ± 0.0081

TAGTTGAACA
switch fluorescence ratio: 1.01 ± 0.021

TAGTTGATGT
switch fluorescence ratio: 1.026 ± 0.008

TAGTTGGATT
switch fluorescence ratio: 0.972 ± 0.038

TAGTTGGGGC
switch fluorescence ratio: 1.01 ± 0.026

TAGTTGGGTT
switch fluorescence ratio: 0.986 ± 0.041

TAGTTGTAAA
switch fluorescence ratio: 1.03 ± 0.075

TAGTTGTTCC
switch fluorescence ratio: 1.07 ± 0.07

TAGTTGTTCT
switch fluorescence ratio: 0.962 ± 0.022

TAGTTTCTGG
switch fluorescence ratio: 0.965 ± 0.02

TAGTTTGGAA
switch fluorescence ratio: 0.984 ± 0.04

TAGTTTGGAT
switch fluorescence ratio: 1.01 ± 0.026

TAGTTTGGCA
switch fluorescence ratio: 0.985 ± 0.037

TAGTTTGGTT
switch fluorescence ratio: 0.9887 ± 0.0052

TAGTTTGTTT
switch fluorescence ratio: 1.02 ± 0.074

TATAAAACAC
switch fluorescence ratio: 1.02 ± 0.013

TATAAAACGG
switch fluorescence ratio: 1.14 ± 0.045

TATAAAAGTG
switch fluorescence ratio: 0.958 ± 0.053

TATAAATTGC
switch fluorescence ratio: 1.01 ± 0.016

TATAACGCGC
switch fluorescence ratio: 1.11 ± 0.061

TATAAGACAT
switch fluorescence ratio: 1.03 ± 0.038

TATAAGACTT
switch fluorescence ratio: 1.01 ± 0.035

TATAAGAGTG
switch fluorescence ratio: 1.03 ± 0.032

TATAAGGGAG
switch fluorescence ratio: 0.996 ± 0.023

TATAAGGGTT
switch fluorescence ratio: 1.01 ± 0.017

TATAATCTGT
switch fluorescence ratio: 1.01 ± 0.017

TATACCGCGA
switch fluorescence ratio: 2.49 ± 0.29

TATACCGGCG
switch fluorescence ratio: 1.05 ± 0.076

TATACCTAGG
switch fluorescence ratio: 1.003 ± 0.0065

TATACGTGTG
switch fluorescence ratio: 1.031 ± 0.0043

TATACTATGT
switch fluorescence ratio: 1.05 ± 0.024

TATACTTAAT
switch fluorescence ratio: 1.059 ± 0.0053

TATAGAGGGG
switch fluorescence ratio: 1.07 ± 0.15

TATAGATAAG
switch fluorescence ratio: 1.01 ± 0.015

TATAGATTGG
switch fluorescence ratio: 0.985 ± 0.019

TATAGCATTA
switch fluorescence ratio: 1.04 ± 0.014

TATAGCCGAA
switch fluorescence ratio: 1 ± 0.083

TATAGGAGGG
switch fluorescence ratio: 0.991 ± 0.039

TATAGGCGCG
switch fluorescence ratio: 1.03 ± 0.072

TATAGGGACA
switch fluorescence ratio: 1.2 ± 0.03

TATAGGGATT
switch fluorescence ratio: 0.984 ± 0.015

TATAGGGGGT
switch fluorescence ratio: 1.01 ± 0.036

TATAGGGGTG
switch fluorescence ratio: 1.03 ± 0.039

TATAGGTAAT
switch fluorescence ratio: 1.03 ± 0.011

TATAGGTGCA
switch fluorescence ratio: 0.997 ± 0.024

TATAGTATGT
switch fluorescence ratio: 1.01 ± 0.015

TATATAAATT
switch fluorescence ratio: 0.985 ± 0.021

TATATATAAC
switch fluorescence ratio: 1.006 ± 0.0081

TATATATAGG
switch fluorescence ratio: 1 ± 0.025

TATATATTAA
switch fluorescence ratio: 1.001 ± 0.0023

TATATATTGC
switch fluorescence ratio: 1.02 ± 0.03

TATATCAATC
switch fluorescence ratio: 0.991 ± 0.013

TATATCGTC
switch fluorescence ratio: 1.19 ± 0.31

TATATCTTCA
switch fluorescence ratio: 1.017 ± 0.0055

TATATGCGCG
switch fluorescence ratio: 0.994 ± 0.041

TATATGGGGC
switch fluorescence ratio: 1.03 ± 0.03

TATATGGTGG
switch fluorescence ratio: 1.02 ± 0.056

TATATGGTTG
switch fluorescence ratio: 0.9383 ± 0.0022

TATATGTCCA
switch fluorescence ratio: 1 ± 0.027

TATATTACCC
switch fluorescence ratio: 1.05 ± 0.065

TATATTAGGT
switch fluorescence ratio: 1.13 ± 0.1

TATATTCTTA
switch fluorescence ratio: 1 ± 0.065

TATATTGAGG
switch fluorescence ratio: 0.991 ± 0.042

TATATTGGGA
switch fluorescence ratio: 0.992 ± 0.022

TATATTGTAA
switch fluorescence ratio: 1.01 ± 0.013

TATATTTAAG
switch fluorescence ratio: 1.01 ± 0.03

TATATTTCGG
switch fluorescence ratio: 0.995 ± 0.044

TATCAGTCGT
switch fluorescence ratio: 0.988 ± 0.032

TATCATATCA
switch fluorescence ratio: 0.956 ± 0.017

TATCATGTGA
switch fluorescence ratio: 1.01 ± 0.011

TATCATTGGG
switch fluorescence ratio: 0.968 ± 0.029

TATCATTTTG
switch fluorescence ratio: 0.986 ± 0.057

TATCCCTGTT
switch fluorescence ratio: 0.976 ± 0.013

TATCCGGGGT
switch fluorescence ratio: 1.03 ± 0.025

TATCCTTTCA
switch fluorescence ratio: 1.04 ± 0.026

TATCCTTTGA
switch fluorescence ratio: 1.002 ± 0.0014

TATCGAATCC
switch fluorescence ratio: 0.99 ± 0.025

TATCGAGCAT
switch fluorescence ratio: 1.028 ± 0.0096

TATCGAGTTT
switch fluorescence ratio: 1 ± 0.038

TATCGGAAGG
switch fluorescence ratio: 0.9901 ± 0.0013

TATCGGCGTG
switch fluorescence ratio: 0.98796 ± 0.00031

TATCGGGGCT
switch fluorescence ratio: 0.981 ± 0.064

TATCGGGGGT
switch fluorescence ratio: 1.02 ± 0.039

TATCGGTCGG
switch fluorescence ratio: 0.98 ± 0.021

TATCGGTGTT
switch fluorescence ratio: 0.991 ± 0.027

TATCGTACAG
switch fluorescence ratio: 1.06 ± 0.011

TATCGTAGGA
switch fluorescence ratio: 0.977 ± 0.032

TATCGTATTG
switch fluorescence ratio: 0.979 ± 0.011

TATCGTGATG
switch fluorescence ratio: 0.992 ± 0.039

TATCTAAAAC
switch fluorescence ratio: 1.001 ± 0.0032

TATCTAGAGG
switch fluorescence ratio: 1.01 ± 0.022

TATCTCAGAA
switch fluorescence ratio: 0.99 ± 0.014

TATCTCTGGG
switch fluorescence ratio: 1.02 ± 0.014

TATCTGGGGC
switch fluorescence ratio: 1.04 ± 0.025

TATGAAAATC
switch fluorescence ratio: 0.983 ± 0.03

TATGAAGAAG
switch fluorescence ratio: 0.994 ± 0.054

TATGAAGTCG
switch fluorescence ratio: 0.9937 ± 0.0098

TATGAATAGC
switch fluorescence ratio: 1.02 ± 0.05

TATGAATTTG
switch fluorescence ratio: 1 ± 0.028

TATGACACTT
switch fluorescence ratio: 1.03 ± 0.047

TATGACAGGG
switch fluorescence ratio: 1.05 ± 0.024

TATGACATGG
switch fluorescence ratio: 0.959 ± 0.011

TATGAGAGGC
switch fluorescence ratio: 1.04 ± 0.035

TATGAGCTGG
switch fluorescence ratio: 0.97 ± 0.015

TATGAGGAGT
switch fluorescence ratio: 0.982 ± 0.015

TATGAGTAAT
switch fluorescence ratio: 0.9866 ± 0.0093

TATGATATCC
switch fluorescence ratio: 0.9783 ± 0.0089

TATGATGGGT
switch fluorescence ratio: 1.015 ± 0.01

TATGATGTTA
switch fluorescence ratio: 0.9931 ± 0.0093

TATGCATATT
switch fluorescence ratio: 1.04 ± 0.032

TATGCCTGTG
switch fluorescence ratio: 1.01 ± 0.036

TATGCTGGTT
switch fluorescence ratio: 1.05 ± 0.061

TATGCTTTAA
switch fluorescence ratio: 1.01 ± 0.024

TATGGAAACG
switch fluorescence ratio: 0.981 ± 0.011

TATGGAAAGG
switch fluorescence ratio: 0.994 ± 0.016

TATGGAATTT
switch fluorescence ratio: 0.985 ± 0.009

TATGGAGACC
switch fluorescence ratio: 0.9917 ± 0.0049

TATGGAGAGC
switch fluorescence ratio: 1.02 ± 0.038

TATGGAGGGT
switch fluorescence ratio: 1.01 ± 0.022

TATGGAGTTG
switch fluorescence ratio: 0.992 ± 0.032

TATGGATCTA
switch fluorescence ratio: 0.986 ± 0.048

TATGGCATAC
switch fluorescence ratio: 1.51 ± 0.02

TATGGCGGAG
switch fluorescence ratio: 0.9975 ± 0.0061

TATGGCTTTG
switch fluorescence ratio: 0.9945 ± 0.0061

TATGGGAAGA
switch fluorescence ratio: 0.985 ± 0.027

TATGGGCCTA
switch fluorescence ratio: 0.971 ± 0.053

TATGGGCTAC
switch fluorescence ratio: 1.56 ± 0.74

TATGGGCTGG
switch fluorescence ratio: 0.979 ± 0.049

TATGGGGAAT
switch fluorescence ratio: 1.03 ± 0.098

TATGGGGCTT
switch fluorescence ratio: 0.992 ± 0.017

TATGGGGTAT
switch fluorescence ratio: 0.9863 ± 0.0055

TATGGGGTGT
switch fluorescence ratio: 1.01 ± 0.033

TATGGGTACG
switch fluorescence ratio: 1.01 ± 0.016

TATGGGTCGG
switch fluorescence ratio: 1 ± 0.043

TATGGGTGGG
switch fluorescence ratio: 0.964 ± 0.018

TATGGTCAG
switch fluorescence ratio: 1.02 ± 0.042

TATGGTGAGG
switch fluorescence ratio: 0.976 ± 0.013

TATGGTGGGT
switch fluorescence ratio: 0.995 ± 0.027

TATGGTGTTC
switch fluorescence ratio: 0.981 ± 0.015

TATGGTTTTG
switch fluorescence ratio: 1.01 ± 0.017

TATGTACATG
switch fluorescence ratio: 1 ± 0.026

TATGTAGGGC
switch fluorescence ratio: 1.02 ± 0.05

TATGTCGGCG
switch fluorescence ratio: 0.991 ± 0.055

TATGTCGGTT
switch fluorescence ratio: 0.985 ± 0.033

TATGTCTCCG
switch fluorescence ratio: 1.03 ± 0.017

TATGTCTCGC
switch fluorescence ratio: 0.995 ± 0.044

TATGTGAGCT
switch fluorescence ratio: 1.01 ± 0.024

TATGTGAGGG
switch fluorescence ratio: 0.988 ± 0.033

TATGTGAGTA
switch fluorescence ratio: 1.01 ± 0.013

TATGTGATGG
switch fluorescence ratio: 0.9874 ± 0.0053

TATGTGGACT
switch fluorescence ratio: 1 ± 0.057

TATGTGGGTA
switch fluorescence ratio: 0.983 ± 0.026

TATGTGTGAC
switch fluorescence ratio: 1.03 ± 0.021

TATGTTACCA
switch fluorescence ratio: 0.977 ± 0.046
